Values belong to the binder of their own block, whether it stands above or below them.
Experiments:
[1] = molecular target: Replication protein A (RPA), Saccharomyces cerevisiae (Saccharomyces cerevisiae, UniProt P22336 1-621; P26754 1-273; P26755 1-122); assay: pull-down
His6-tagged Dmc1 = molecular target: T1, His6-tagged Dmc1 (Saccharomyces cerevisiae, UniProt P25453 1-334); assay: co-IP
T1 sequence (looked up): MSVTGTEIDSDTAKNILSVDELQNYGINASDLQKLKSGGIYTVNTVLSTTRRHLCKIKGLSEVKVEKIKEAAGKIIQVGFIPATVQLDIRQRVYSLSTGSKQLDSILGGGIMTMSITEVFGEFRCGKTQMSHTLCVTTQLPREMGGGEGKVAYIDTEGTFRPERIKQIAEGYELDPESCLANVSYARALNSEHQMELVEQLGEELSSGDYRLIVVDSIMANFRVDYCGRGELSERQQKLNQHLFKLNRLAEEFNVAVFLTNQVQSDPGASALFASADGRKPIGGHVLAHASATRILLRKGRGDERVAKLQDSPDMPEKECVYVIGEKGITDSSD

Rdh54/Tid1 = molecular target: T2, Rdh54/Tid1 (Saccharomyces cerevisiae, UniProt P38086 1-958); assay: fluorescence polarization
T2 sequence: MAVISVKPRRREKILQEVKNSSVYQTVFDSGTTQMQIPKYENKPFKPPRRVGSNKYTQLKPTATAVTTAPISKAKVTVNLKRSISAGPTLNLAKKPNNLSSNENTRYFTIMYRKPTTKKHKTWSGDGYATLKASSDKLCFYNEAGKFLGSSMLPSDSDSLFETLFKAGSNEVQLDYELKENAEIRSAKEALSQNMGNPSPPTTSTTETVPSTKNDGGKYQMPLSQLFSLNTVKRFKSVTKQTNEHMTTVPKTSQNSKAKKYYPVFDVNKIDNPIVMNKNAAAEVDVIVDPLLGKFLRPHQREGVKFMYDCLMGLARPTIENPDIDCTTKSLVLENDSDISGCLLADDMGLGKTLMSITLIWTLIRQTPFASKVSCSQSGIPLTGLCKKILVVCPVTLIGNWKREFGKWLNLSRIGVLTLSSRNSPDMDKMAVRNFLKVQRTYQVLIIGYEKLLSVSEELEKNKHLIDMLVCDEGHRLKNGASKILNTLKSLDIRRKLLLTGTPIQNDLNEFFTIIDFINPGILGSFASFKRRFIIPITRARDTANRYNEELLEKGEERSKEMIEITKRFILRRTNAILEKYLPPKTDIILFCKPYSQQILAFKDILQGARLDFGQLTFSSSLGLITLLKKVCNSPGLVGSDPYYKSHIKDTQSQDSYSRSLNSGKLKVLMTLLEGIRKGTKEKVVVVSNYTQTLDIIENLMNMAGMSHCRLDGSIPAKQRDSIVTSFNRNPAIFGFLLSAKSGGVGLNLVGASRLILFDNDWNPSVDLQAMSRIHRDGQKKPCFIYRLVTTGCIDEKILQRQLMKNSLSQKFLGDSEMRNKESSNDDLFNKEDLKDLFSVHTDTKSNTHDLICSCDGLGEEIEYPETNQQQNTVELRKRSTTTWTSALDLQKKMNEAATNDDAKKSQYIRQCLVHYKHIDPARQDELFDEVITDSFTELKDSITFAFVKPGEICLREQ

Replication protein A (RPA), Saccharomyces cerevisiae, sequence (P22336 whole entry, chain 1 of 3): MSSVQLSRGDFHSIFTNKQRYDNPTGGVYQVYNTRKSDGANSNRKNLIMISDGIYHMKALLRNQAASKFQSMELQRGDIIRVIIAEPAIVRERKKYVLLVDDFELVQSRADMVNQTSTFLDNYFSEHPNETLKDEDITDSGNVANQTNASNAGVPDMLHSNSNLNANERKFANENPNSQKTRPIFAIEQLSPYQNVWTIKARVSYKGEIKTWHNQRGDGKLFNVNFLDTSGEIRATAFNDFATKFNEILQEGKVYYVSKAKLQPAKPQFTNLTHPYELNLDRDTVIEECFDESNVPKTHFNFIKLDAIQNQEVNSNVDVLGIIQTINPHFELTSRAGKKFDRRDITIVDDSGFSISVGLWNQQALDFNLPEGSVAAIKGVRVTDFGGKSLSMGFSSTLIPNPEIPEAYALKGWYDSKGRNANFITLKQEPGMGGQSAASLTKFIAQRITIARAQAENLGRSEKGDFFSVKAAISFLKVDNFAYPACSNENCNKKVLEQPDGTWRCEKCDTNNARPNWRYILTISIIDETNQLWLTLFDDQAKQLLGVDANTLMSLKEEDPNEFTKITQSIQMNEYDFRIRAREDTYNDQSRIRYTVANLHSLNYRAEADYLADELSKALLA
Replication protein A (RPA), Saccharomyces cerevisiae, sequence (P26754 whole entry, chain 2 of 3): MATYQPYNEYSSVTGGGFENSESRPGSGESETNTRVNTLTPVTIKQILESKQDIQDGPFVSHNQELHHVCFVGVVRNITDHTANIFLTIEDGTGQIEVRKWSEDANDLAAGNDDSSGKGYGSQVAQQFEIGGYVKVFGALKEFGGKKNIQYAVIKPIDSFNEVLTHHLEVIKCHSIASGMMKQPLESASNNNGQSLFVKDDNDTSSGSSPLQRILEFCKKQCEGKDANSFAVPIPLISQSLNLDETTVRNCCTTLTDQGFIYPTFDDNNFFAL
Replication protein A (RPA), Saccharomyces cerevisiae, sequence (P26755 whole entry, chain 3 of 3): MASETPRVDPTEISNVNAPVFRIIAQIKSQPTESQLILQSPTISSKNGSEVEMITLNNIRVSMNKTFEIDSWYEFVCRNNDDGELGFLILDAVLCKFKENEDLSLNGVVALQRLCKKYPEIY

binding result [1]: binds | binding result (His6-tagged Dmc1): binds
B1: His6-tagged Mei5-Sae3 heterodimer (complex, Saccharomyces cerevisiae)
chain 1: MHNQEEWLDKDKTLVNEEENTCINHSYTKKDTNNYRVGKSGIKDLKKPTNQKEIAIKNRELTKQLTLLRQENNHLQQACKILSENKIIENRKSIEKWRTICEMELSFILNSTLIKINRMGGYKDFLEKEMEAKKRRLEYQIDNGMEDQICEIKESDDFRQLSEVEKQEWESQMNEQLKELEKKKIAELEKLNKVLHDSEGKDFGMAELCTRLKLDYSLIFPQ
chain 2: MNYLETQLNKKQKQIQEYESMNGNLIKMFEQLSKEKKNDETPKKISSTYIKELKEYNELRDAGLRLAQIIADEKQCKIKDVFEEIGYSMKD

B2: 84-mer ssDNA (ssDNA)
DNA: GGTAGCGGTTGGGTGAGTGGTGGGGAGGGTCGGGAGGTGGCGTAGAAACATGATAGGAATGTGAATGAATGAAGTACAAGTAAA
Kd (Rdh54/Tid1): 230 nM

Reference: publication PMC6344864 (Nucleic Acids Research, 2018)
